The record followed here is patent publication US20250263490A1 (VIB VZW, published 2025).

Assay [1] deals with recombinant human domain 1-3His6 of the cation-independent mannose-6-phosphate receptor (human) (UniProt P11717). Nature of the assay: BLI exp 1, dissoc pH 6, bivalent model.
Assay [2] shares this target. The assay is described as follows: BLI exp 2, dissoc pH 5, bivalent model.
Assay [3] has as its target human cation-independent mannose-6-phosphate receptor, native, on cells (human) (UniProt P11717). Nature of the assay: flow cytometry on HEK293T cells (sheet: HEK293 cell), titration of the anti-CI-M6PR 2G11 antibody (Abcam ab2733) [lower graph]. A general note: Flow cytometry measures light scatter and fluorescence of single cells or particles in a stream.
Assay [4] has as its target recombinant human domain 1-3His6 of the cation-independent mannose-6-phosphate receptor (human) (UniProt P11717). The assay is described as follows: BLI exp 1, dissoc pH 5, bivalent model.
Assay [5] shares this target. The assay is described as follows: BLI exp 2, dissoc pH 7.4, bivalent model.
The target is the same in assay [6]. The assay is described as follows: BLI at pH 7.4, bivalent model.
Assay [7] shares this target. The assay is described as follows: BLI exp 1, dissoc pH 7, bivalent model.
Assay [8] shares this target. The assay is described as follows: BLI exp 2, dissoc pH 6, bivalent model.
For assay [9] the target is unchanged. Nature of the assay: BLI exp 2, dissoc pH 7, bivalent model.
Assay [10] concerns the target human cation-independent mannose-6-phosphate receptor, native, on cells (human) (UniProt P11717). Nature of the assay: flow cytometry on HepG2 cells, titration of the anti-CI-M6PR 2G11 antibody (Abcam ab2733) [lower graph].
Assay [11] deals with recombinant human domain 1-3His6 of the cation-independent mannose-6-phosphate receptor (human) (UniProt P11717). Nature of the assay: BLI exp 1, dissoc pH 7.4, bivalent model.
The target in assay [12] is T1, recombinant human domain 1-3His6 of the cation-independent mannose-6-phosphate receptor (human, UniProt P11717 41-467).
T1 construct: Biotinylated (NHS-PEG4-biotin) for BLI; Glycosylated; also called hDom1-3His6; hCI-M6PRD1-D3
The assay is described as follows: in-tandem competitive BLI, biotinylated hDom1-3His6 on SA sensors, periplasmic extract of E. coli (concentration not given). As to the method:
FIGS. 50 & 51. […] In-tandem competitive BLI was performed on an Octet Red96 (FortéBio) instrument in kinetics buffer (1×PBS, 1 mg/ml bovine serum albumin, 0.02% Tween-20 and 0.05% sodium azide). Human CI-M6PR domain₁₋₃His₆ (0.5 mg/mL in 50 mM MES, 150 mM NaCl, pH 6.5) was incubated for 30 minutes at room temperature with EZ-Link™ NHS-PEG4-Biotin (1 mg, Thermo Fischer A39259) and NaHCO₃ (100 mM). Biotinylated human domain₁₋₃His₆ was purified using a Zeba spin desalting Column™ (7K MWCO, 2 mL, Thermo Fischer 89890) and immobilized on Streptavidin SA biosensors (Sartorius) to a signal of 0.5 nm. […] Between assays, biosensors were regenerated by three times 10 s exposure to regeneration buffer (10 mM glycine pH 3). Data were double reference-subtracted and aligned in Octet Data Analysis software v9.0 (FortéBio). Greyscale curves represent double reference-subtracted data.

In assay [13] the target is T1, recombinant human domain 1-3His6 of the …. Nature of the assay: in-tandem competitive BLI, biotinylated hDom1-3His6 on SA sensors, purified VHH at 400 nM. As for the experimental part: (§1) FIGS. 50 & 51. In-tandem competitive BLI of purified anti-CI-M6PR VHHs. In-tandem competitive BLI was performed on an Octet Red96 (FortéBio) instrument in kinetics buffer (1×PBS, 1 mg/ml bovine serum albumin, 0.02% Tween-20 and 0.05% sodium azide). Human CI-M6PR domain₁₋₃His₆ (0.5 mg/mL in 50 mM MES, 150 mM NaCl, pH 6.5) was incubated for 30 minutes at room temperature with EZ-Link™ NHS-PEG4-Biotin (1 mg, Thermo Fischer A39259) and NaHCO₃ (100 mM). Biotinylated human domain₁₋₃His₆ was purified using a Zeba spin desalting Column™ (7K MWCO, 2 mL, Thermo Fischer 89890) and immobilized on Streptavidin SA biosensors (Sartorius) to a signal of 0.5 nm. […] Between assays, biosensors were regenerated by three times 10 s exposure to regeneration buffer (10 mM glycine pH 3). Data were double reference-subtracted and aligned in Octet Data Analysis software v9.0 (FortéBio). Greyscale curves represent double reference-subtracted data.

The target is the same in assay [14]. The assay is described as follows: in-tandem competitive BLI, 400 nM. As to the method:
as §1
FIG. 55. […] In-tandem competitive BLI was performed as described in FIG. 50.

The target is the same in assay [15]. The assay is described as follows: BLI, global 1:1 fit, pH 7.4. As for the experimental part:
(§2) FIGS. 58 & 59. […] BLI was performed on an Octet Red96 (FortéBio) instrument in kinetics buffer (0.2 M Na₂HPO₄, 0.1 M Na⁺ citrate, 0.01% bovine serum albumin, 0.002% Tween-20). Biotinylated human domain₁₋₃His₆ was immobilized on Streptavidin SA biosensors (Sartorius) to a signal of 0.6 nm. […] Between assays, biosensors were regenerated by three times 10 s exposure to regeneration buffer (10 mM glycine pH 3). The degree of association and dissociation was measured in δ nm over time (s).
(§3) After loading, the tips were incubated with VHHs serially diluted in pH 7.4 kinetic buffer during the association phase and dissociation was performed at pH 7.4, pH 6.5, pH 6.0, pH 5.5 and pH 5.0. All biosensor tips were then regenerated before analysis of the subsequent VHH. Table 13 summarizes the kinetic parameters retrieved after processing and curve fitting of the BLI measurements. When both association and dissociation were performed at pH 7.4, a global fit was performed according to the 1:1 binding model of which the resulting affinity constants (KD), association (kₒₙ) and dissociation rate constants (koff) are shown. For measurements with association at pH 7.4 and dissociation at pH 6.5, 6.0, 5.5 and 5.0, the depicted dissociation rate constants are an average of the parameters determined by local curve fitting of the dissociation of 200, 100 and 50 nM VHH.
(BLI is a label-free optical method that tracks binding on a fibre tip over time.)

The target is the same in assay [16]. The assay is described as follows: BLI, dissoc pH 6.5, mean of local fits. As for the experimental part:
as §2, §3

The target is the same in assay [17]. Nature of the assay: BLI, dissoc pH 5.5, mean of local fits. As for the experimental part: as §2, §3
Assay [18] shares this target. Nature of the assay: BLI, dissoc pH 6, mean of local fits. As for the experimental part:
as §2, §3

Assay [19] has the same target. The assay is described as follows: BLI, dissoc pH 5, mean of local fits. As to the method:
as §2, §3

The target is the same in assay [20]. The assay is described as follows: in-tandem competitive BLI, biotinylated hDom1-3His6 on SA sensors, purified VHH.

A word on the koff: it is the rate constant with which the complex falls apart. As usually defined, the kon is a measure of how fast the partners come together. By EC50 (read off the curve) is commonly meant the concentration that produces a half-maximal response. A high value points to a need for much substance. Take anti-CI-M6PR antibody (clone 2G11): the Kd stood at 2350 nM in [1]; 1510 nM in [4]; 13.1 nM in assay [5]; 2760 nM in assay [6]; 4430 nM in assay [7]; 2760 nM in assay [11]. Besides, the koff in assay [1] turned out to be 0.000479 s⁻¹; in assay [2], 0.000389 s⁻¹; in assay [4] it was 0.000363 s⁻¹; in assay [5], 0.000794 s⁻¹; in assay [6] it was 0.000592 s⁻¹; in assay [7], 0.000712 s⁻¹. Besides, the koff was determined as 0.000534 s⁻¹ in [8], 0.00103 s⁻¹ in assay [9] and 0.000592 s⁻¹ in assay [11]. Moreover, the kon in assay [1] was 204 M⁻¹ s⁻¹; in assay [2], 35900 M⁻¹ s⁻¹; in [4], 241 M⁻¹ s⁻¹; in [5], 60700 M⁻¹ s⁻¹; in assay [6], 215 M⁻¹ s⁻¹; in assay [7], 161 M⁻¹ s⁻¹. Also, the results for the kon in assay [8], in [9] and in assay [11] were 42600 M⁻¹ s⁻¹, 31100 M⁻¹ s⁻¹ and 215 M⁻¹ s⁻¹, respectively. Further, the half-maximal effective concentration (EC50 (read off the curve)) in assay [3] was 0.2 nM; in [10], 0.6 nM.

B1: anti-CI-M6PR VHH 2H79 (VHH)
VHH: QVQLQESGGGQVQAGDSLGLSCAASGGAFSTYHMGWFRQAPGKQRELVAAITRGGSSSTKYVDSVKGRFTISRDNAKNTMYLQMNSLQPDDTAVYYCAASPQGKWNALVGGTPDYWGQGTQVTVSS
Consider B1, for which, in [12], the binding result is given as “binds”.

B2: anti-CI-M6PR VHH 1H21 (VHH)
VHH: QVQLQESGGGLVQAGGSLRLSCVASGRTFSTLHMGWFHQAPGKERELVAAITRSGDTYYADFVKGRFTISRDNAKNTVYLQMISLKPEDTAVYYCAATGPGGWARLRAHEYDYWGQGTQVTVSS
For B2, the binding result in assay [13] is “binds”.

B3: humanized VHH8 variant VHH8 h4 (VHH)
VHH: DVQLVESGGGLVQPGGSLRLSCEASGRTFNTYNWGWFRQAPGKEREFVAAIRWSSSKTSYADSVKGRFTISRDNSKNTVYLQMNSLRPEDTAVYYCAASIVDFTTNPSHFGSWGQGTLVTVSS
notes: made in E. coli
As for B3, in assay [14], the binding result was “binds”.

B4: humanized VHH8 variant VHH8 h5 (VHH)
VHH: DVQLVESGGGLVQAGGSLRLSCEASGRTFNTYNWGWFRQAPGKEREFVAAIRWSSSKTSYADSVKGRFTISRDNSKNTVYLQMNSLRPEDTAVYYCAASIVDFTTNPSHFGSWGQGTLVTVSS
notes: made in E. coli
For the molecule B4, the binding result in [14] is “binds”.

B5: anti-CI-M6PR VHH 1H52 (VHH)
VHH: QVQLQESGGGLVQPGGSLRLSCTASGFTWDSYVIGWFRQAPGKGREGVSCLDVDDGSIYYHDSAKGRFSISRDNAKNTVYLQMNSLKPEDTAVYYCAAVNRASMRFRRCLQVLRYDYWGQGTQVTVSS
notes: made in E. coli WK6, His-tag purified
With B5, the Kd in assay [15] came out at 31 nM. For the same molecule, the koff in [15] is 0.032 s⁻¹; in assay [16], 0.067 s⁻¹; in assay [17], 0.051 s⁻¹; in assay [18], 0.03 s⁻¹; in assay [19], 0.2 s⁻¹. Further, the kon in [15] came to 1e+06 M⁻¹ s⁻¹.

B6: 1H74 (VHH)
VHH: QVQLQESGGGLVQPGGSLRLACAASGFTLEDYSIGWFRQAPGKEREGVSCISSSDHSTYYADSVKGRFTISRDNAQNTVYLHMNSLKPEDTAVYYCAGRYSSLARIETNWHDYNYWGQGTQVTVSS
notes: also called anti-CI-M6PR VHH 1H74
For the molecule B6, the binding result in assay [20] is “no binding (tested: 400 nM)”.

B7: anti-CI-M6PR VHH 1H37 (VHH)
VHH: QVQLQESGGGLVQPGGSLRLTCAPSGRTYSTYWMAWFRQAPGKEREIVARINWSDGSTFYTESVKGRFTISGDNAKNTVYLQMTNLKPEDTAVYYCLARTVVSLDDYWGQGTQVTVSS
Regarding B7, in assay [13], the binding result is listed as “binds”.

B8: anti-CI-M6PR VHH 2H74 (VHH)
VHH: QVQLQESGGGLVQAGGSLRLTCAPSGRTYSTYWMAWFRQAPGKEREIVARINWSDGSTFYTESVKGRFTISGDNAKNTVYLQMTNLKPEDTAVYYCLARTVVSLDDYWGQGTQVTVSS
In the case of B8, in [12], the binding result was “binds”.
